Test results reported in US20090118185A1 (UNIVERSITY OF ROCHESTER, published 2009).
Substitutions are numbered along the chain they refer to. Several values for one entry are separate records, joined by “and”; a condition that tells them apart may be missing. Equal entries are not always repeated.

Experiments:
[1] = target: T1, 336(P4-P2)562 factor VIIIa mutant
T1 chain 1: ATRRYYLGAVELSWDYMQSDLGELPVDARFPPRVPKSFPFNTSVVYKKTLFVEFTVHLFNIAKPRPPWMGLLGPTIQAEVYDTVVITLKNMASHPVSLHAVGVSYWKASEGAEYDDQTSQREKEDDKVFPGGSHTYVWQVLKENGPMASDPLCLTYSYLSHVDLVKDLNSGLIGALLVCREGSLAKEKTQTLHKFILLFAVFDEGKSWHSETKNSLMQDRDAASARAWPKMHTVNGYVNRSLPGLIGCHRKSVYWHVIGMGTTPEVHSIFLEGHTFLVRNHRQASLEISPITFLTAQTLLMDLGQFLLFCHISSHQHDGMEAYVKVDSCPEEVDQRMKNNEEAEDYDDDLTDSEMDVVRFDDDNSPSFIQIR
T1 chain 2: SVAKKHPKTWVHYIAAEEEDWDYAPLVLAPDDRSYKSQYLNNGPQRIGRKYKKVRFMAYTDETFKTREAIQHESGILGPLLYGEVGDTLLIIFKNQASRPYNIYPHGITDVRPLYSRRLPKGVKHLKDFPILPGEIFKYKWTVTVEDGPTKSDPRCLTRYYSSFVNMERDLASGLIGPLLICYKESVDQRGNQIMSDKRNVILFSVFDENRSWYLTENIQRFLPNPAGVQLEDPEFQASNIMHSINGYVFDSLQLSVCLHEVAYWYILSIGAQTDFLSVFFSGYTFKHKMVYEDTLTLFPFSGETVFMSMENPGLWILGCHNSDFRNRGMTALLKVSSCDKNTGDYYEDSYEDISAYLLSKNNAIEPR
T1 chain 3: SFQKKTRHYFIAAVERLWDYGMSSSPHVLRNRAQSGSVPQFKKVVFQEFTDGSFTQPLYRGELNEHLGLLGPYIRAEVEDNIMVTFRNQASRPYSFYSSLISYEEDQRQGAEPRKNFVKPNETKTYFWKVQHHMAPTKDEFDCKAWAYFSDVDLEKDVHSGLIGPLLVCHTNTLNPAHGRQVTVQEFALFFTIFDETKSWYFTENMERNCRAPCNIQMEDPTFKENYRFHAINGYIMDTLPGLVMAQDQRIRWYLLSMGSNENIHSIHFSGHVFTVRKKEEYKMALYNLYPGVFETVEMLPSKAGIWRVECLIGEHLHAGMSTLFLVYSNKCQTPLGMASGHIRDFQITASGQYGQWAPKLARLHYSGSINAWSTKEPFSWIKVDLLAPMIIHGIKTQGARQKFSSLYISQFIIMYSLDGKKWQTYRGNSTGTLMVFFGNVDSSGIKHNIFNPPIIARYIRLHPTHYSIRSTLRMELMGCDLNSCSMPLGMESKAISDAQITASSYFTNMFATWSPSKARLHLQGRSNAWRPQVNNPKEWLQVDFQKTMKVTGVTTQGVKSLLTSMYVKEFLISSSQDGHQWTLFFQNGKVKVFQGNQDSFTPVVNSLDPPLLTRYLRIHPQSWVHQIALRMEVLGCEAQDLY

[2] = target: T2, WT factor VIIIa (B-domainless recombinant human factor VIII activated by thrombin)
T2 chain 1: T1 chain 1 with V333P, D334Q, Q335L
T2 chain 2: T1 chain 2
T2 chain 3: T1 chain 3

[3] = target: T3, 562(P4-P2)336 factor VIII mutant (procofactor)
T3 chain 1: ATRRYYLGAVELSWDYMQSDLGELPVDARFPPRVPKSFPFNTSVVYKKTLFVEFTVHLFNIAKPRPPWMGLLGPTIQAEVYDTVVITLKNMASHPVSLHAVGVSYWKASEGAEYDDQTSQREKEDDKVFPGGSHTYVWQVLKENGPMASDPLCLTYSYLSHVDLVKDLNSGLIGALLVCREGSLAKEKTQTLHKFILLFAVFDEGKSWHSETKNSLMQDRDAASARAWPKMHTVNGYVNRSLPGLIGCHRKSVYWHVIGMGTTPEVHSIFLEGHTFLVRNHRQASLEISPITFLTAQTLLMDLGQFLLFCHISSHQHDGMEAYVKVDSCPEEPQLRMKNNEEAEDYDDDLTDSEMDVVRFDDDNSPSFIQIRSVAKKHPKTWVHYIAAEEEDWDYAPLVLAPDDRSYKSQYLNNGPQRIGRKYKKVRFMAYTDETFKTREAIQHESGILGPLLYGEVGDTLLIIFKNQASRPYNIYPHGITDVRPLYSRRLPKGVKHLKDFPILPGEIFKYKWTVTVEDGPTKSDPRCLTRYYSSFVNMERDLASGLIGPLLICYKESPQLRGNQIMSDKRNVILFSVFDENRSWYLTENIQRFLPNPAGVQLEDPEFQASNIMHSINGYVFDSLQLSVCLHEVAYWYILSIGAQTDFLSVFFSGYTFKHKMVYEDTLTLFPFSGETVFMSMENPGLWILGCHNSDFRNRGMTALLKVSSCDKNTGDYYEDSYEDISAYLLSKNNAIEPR
T3 chain 2: T1 chain 3

B1: human activated protein C (protein)
chain 1: ANSFLEELRHSSLERECIEEICDFEEAKEIFQNVDDTLAFWSKHVDGDQCLVLPLEHPCASLCCGHGTCIDGIGSFSCDCRSGWEGRFCQREVSFLNCSLDNGGCTHYCLEEVGWRRCSCAPGYKLGDDLLQCHPAVKFPCGRPWKRMEKKRSHL
chain 2: LIDGKMTRRGDSPWQVVLLDSKKKLACGAVLIHPSWVLTAAHCMDESKKLLVRLGEYDLRRWEKWELDLDIKEVFVHPNYSKSTTDNDIALLHLAQPATLSQTIVPICLPDSGLAERELNQAGQETLVTGWGYHSSREKEAKRNRTFVLNFIKIPVVPHNECSEVMSNMVSENMLCAGILGDRQDACEGDSGGPMVASFHGTWFLVGLVSWGEGCGLLHNYGVYTKVSRYLDWIHGHIRDKEAPQKSWAP
[1]
  A1 Cleavage (nM A1/min/nM APC) (nM A1/min/nM APC): 0.6
  A2 Cleavage (nM A2/min/nM APC) (nM A2/min/nM APC): 0.2
  fold reduction of cleavage rate at the A1 site compared with WT: reduced ˜16 and ˜9-fold, respectively, as compared with the WT protein
[2]
  A1 Cleavage (nM A1/min/nM APC) (nM A1/min/nM APC): 8.5 and 9.5
  A2 Cleavage (nM A2/min/nM APC) (nM A2/min/nM APC): 0.5 and 0.2
[3]
  A2 Cleavage (nM A2/min/nM APC) (nM A2/min/nM APC): 0.6
